Results on eight molecules are retold here after patent publication US20260022175A1 (Chugai, published 2026).

Changes are numbered by the printed parent chain.

B1: 04H1637-G1m/04L1610-lam1 (antibody, human IgG1, lambda)
heavy: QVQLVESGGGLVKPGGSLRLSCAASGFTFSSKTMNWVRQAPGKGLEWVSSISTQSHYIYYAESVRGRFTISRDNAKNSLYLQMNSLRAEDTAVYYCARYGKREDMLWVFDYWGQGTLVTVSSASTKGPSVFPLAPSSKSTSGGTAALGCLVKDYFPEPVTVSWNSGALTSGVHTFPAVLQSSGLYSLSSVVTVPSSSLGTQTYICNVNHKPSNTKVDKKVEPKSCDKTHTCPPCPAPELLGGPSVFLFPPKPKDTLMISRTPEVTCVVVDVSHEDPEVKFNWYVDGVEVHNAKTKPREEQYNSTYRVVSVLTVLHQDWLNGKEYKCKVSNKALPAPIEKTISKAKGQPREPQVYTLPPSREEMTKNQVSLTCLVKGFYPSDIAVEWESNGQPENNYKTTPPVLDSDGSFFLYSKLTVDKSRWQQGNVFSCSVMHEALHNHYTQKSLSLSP
light: QSALTQPPSASGSPGQSVTISCEGPSTGVGDYNWVHWYQQHPGKAPKLMIYFTSKKPSGVPDRFSGSKSGNTASLTVSGLQAEDEADYYCQTYAAPLGPMFGGGTKLTVLGQPKAAPSVTLFPPSSEELQANKATLVCLISDFYPGAVTVAWKADSSPVKAGVETTTPSKQSNNKYAASSYLSLTPEQWKSHRSYSCQVTHEGSTVEKTVAPTECS
B2: 04H1656-G1m/04L1606-lam1 (antibody, human IgG1, lambda, V domains shown)
VH: QVQLVESGGGVVQPGGSLRLSCAASGFTFSSKTMNWVRQAPGKGLEWVSSISTQSHYIYYAESVRGRFTISRDNAKNSLYLQMNSLRAEDTAVYYCARYGAREDMLWVFDYWGQGTLVTVSS
VL: QSALTQPPSASGSPGQSVTISCQGPSTGVGDYNWVHWYQQHPGKAPKLMIYFTSKKPSGVPDRFSGSKSGNTASLTVSGLQAEDEADYYCQTYAAPLGPMFGGGTKLTVLG
B3: 04H1654-G1m/04L1606-lam1 (antibody, human IgG1, lambda, V domains shown)
VH: B2 VH with E62R, A101K
VL: B2 VL
B4: 04H1637-G1m/04L1086-lam1 (antibody, human IgG1, lambda)
heavy: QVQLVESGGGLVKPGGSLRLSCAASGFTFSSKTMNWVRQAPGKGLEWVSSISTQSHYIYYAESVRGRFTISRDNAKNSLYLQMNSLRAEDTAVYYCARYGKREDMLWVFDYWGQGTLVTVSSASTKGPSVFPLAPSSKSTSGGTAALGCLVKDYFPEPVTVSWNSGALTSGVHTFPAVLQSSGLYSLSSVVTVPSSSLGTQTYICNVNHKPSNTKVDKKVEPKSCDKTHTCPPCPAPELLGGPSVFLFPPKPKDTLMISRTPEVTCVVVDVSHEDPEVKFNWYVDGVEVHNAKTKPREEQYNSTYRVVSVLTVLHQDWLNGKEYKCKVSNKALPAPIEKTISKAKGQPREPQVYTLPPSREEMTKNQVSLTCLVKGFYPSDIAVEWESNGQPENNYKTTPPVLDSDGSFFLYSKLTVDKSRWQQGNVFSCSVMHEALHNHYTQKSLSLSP
light: B1 light with S17T, E23D, W34Y, Y89F
B5: 04H1389v373-G1m/04L1086-lam1 (antibody, human IgG1, lambda)
heavy: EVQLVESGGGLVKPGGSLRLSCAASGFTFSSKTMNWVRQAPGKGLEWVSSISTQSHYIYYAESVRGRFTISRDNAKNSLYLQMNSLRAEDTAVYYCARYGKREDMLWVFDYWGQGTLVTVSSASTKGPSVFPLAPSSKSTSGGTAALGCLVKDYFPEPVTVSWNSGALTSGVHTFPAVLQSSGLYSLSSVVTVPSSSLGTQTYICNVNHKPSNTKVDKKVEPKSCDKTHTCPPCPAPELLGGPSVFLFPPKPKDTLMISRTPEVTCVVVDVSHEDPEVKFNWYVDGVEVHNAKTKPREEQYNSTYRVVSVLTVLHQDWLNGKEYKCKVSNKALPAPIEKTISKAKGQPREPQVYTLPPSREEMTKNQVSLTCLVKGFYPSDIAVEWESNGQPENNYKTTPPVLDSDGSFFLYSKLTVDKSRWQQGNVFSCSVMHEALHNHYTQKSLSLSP
light: B1 light with S17T, E23D, W34Y, Y89F
B6: 04H1643-G1m/04L1610-lam1 (antibody, human IgG1, lambda)
heavy: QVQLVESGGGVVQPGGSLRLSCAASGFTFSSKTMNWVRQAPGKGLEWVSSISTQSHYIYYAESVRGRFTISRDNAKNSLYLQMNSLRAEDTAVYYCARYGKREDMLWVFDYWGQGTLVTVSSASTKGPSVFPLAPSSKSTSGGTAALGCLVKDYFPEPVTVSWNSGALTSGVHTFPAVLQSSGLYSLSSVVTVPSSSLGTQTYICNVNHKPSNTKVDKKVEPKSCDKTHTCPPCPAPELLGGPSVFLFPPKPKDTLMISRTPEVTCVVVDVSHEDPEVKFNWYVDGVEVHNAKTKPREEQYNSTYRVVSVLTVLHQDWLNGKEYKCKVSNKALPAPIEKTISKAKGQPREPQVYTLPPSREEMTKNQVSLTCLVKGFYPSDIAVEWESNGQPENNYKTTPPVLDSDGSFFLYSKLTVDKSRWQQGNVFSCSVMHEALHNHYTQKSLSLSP
light: B1 light
B7: 04H1637-G1m/04L1581-lam1 (antibody, human IgG1, lambda, V domains shown)
VH: B2 VH with V11L, Q13K, A101K
VL: B2 VL with N33T, S54I, S58K
B8: 04H1637-G1m/04L1594-lam1 (antibody, human IgG1, lambda, V domains shown)
VH: B2 VH with V11L, Q13K, A101K
VL: B2 VL with S58K

The first assay deals with T1, human CTLA4 (human).
T1 construct: also called hCTLA4; hCTLA4-His-BAP
T1 sequence (chain, as listed by the source limits assumed): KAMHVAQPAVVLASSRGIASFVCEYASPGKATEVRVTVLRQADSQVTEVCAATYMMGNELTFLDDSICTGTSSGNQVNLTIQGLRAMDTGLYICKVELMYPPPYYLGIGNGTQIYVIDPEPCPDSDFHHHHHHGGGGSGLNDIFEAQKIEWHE
The assay can be described thus: SPR Biacore T200, 37C, antibody captured, ATP 10 uM. In general terms: SPR reads the build-up and loss of mass on a sensor chip optically.
Usually Kd stands for a measure of binding affinity in units of concentration. A higher Kd goes with a looser complex. As a reminder, the koff is the first-order rate constant of dissociation. A lower koff goes with a long-lived complex. By kon is commonly meant the second-order rate constant of association. A lower kon goes with slow association. With B1, the Kd is 15 nM, the koff is 0.0019 s⁻¹ and the kon worked out at 120000 M⁻¹ s⁻¹.

B2 had a Kd of 19 nM, a koff of 0.0022 s⁻¹ and a kon of 120000 M⁻¹ s⁻¹.

B3 returned a Kd of 21 nM, a koff of 0.0013 s⁻¹ and a kon of 65000 M⁻¹ s⁻¹.

The next assay has as its target T1, human CTLA4. The assay can be described thus: SPR Biacore T200, 37C, antibody captured, no ATP, steady state model.
Experimental: Biacore T200 was used to measure the binding of the generated antibodies to human CTLA4. 20 mM ACES (pH 7.4), 150 mM NaCl, 2 mM MgCl₂, 0.05% Tween 20 with ATP added to the desired concentration was used as the running buffer, and the assay was performed at 37° C. First, Protein G (CALBIOCHEM) was immobilized onto a Series S Sensor Chip CM3 (GE Healthcare), and the antibodies were captured by interacting an antibody solution prepared in an ATP-free running buffer with the chip. Next, by interacting with a human CTLA4 solution prepared in a running buffer containing ATP to the desired concentration, or a human CTLA4 solution prepared in a running buffer containing no ATP, the binding ability of the antibody to human CTLA4 in the presence or absence of ATP was evaluated. Chips were regenerated with 25 mM NaOH and 10 mM Glycine-HCl (pH 1.5), and assay was performed by repeatedly capturing antibodies. The dissociation constant of each antibody for CTLA4 was calculated using Biacore T200 Evaluation Software 2.0. Specifically, the binding rate constant ka (L/mol/s) and the dissociation rate constant kd (1/s) were calculated by global fitting of the sensorgrams obtained by the measurement, using a 1:1 Langmuir binding model. The dissociation constant KD (mol/L) was calculated from those values. Alternatively, the dissociation constant KD (mol/L) was calculated by the steady state model.
As for B1, binding was characterised by a dissociation constant (Kd) of 3300 nM.

B4 yielded a Kd of 5300 nM.

Molecule B2 displayed a Kd of 2300 nM.

In turn, B5 had a Kd of 5300 nM.

Consider B3, for which binding was characterised by a dissociation constant (Kd) of 6800 nM.

In the case of B6, binding was put at a Kd of 2800 nM.

B7 registered a Kd of 3200 nM.

Take B8: the Kd came to 4300 nM.

A further assay has as its target T1, human CTLA4. The assay can be described thus: SPR Biacore T200, 37C, antibody captured, ATP 1 uM.
In the case of B1, the Kd was found to be 100 nM.

For the molecule B4, the equilibrium dissociation constant (Kd) came to 160 nM.

B2 came in with a Kd of 95 nM.

B5 displayed a Kd of 140 nM.

B3 had a Kd of 140 nM.

In turn, B6 had a Kd of 89 nM.

Molecule B7 registered a Kd of 89 nM.

As for B8, binding was put at a Kd of 140 nM.

The target of another assay is T1, human CTLA4. Description: SPR Biacore T200, 37C, antibody captured, ATP 10 uM. This is another data set of the same source.
Experimental: (§1) Biacore T200 was used to measure the binding of the generated antibodies to human CTLA4. 20 mM ACES (pH 7.4), 150 mM NaCl, 2 mM MgCl₂, 0.05% Tween 20 with ATP added to the desired concentration was used as the running buffer, and the assay was performed at 37° C. First, Protein G (CALBIOCHEM) was immobilized onto a Series S Sensor Chip CM3 (GE Healthcare), and the antibodies were captured by interacting an antibody solution prepared in an ATP-free running buffer with the chip. Next, by interacting with a human CTLA4 solution prepared in a running buffer containing ATP to the desired concentration, or a human CTLA4 solution prepared in a running buffer containing no ATP, the binding ability of the antibody to human CTLA4 in the presence or absence of ATP was evaluated. Chips were regenerated with 25 mM NaOH and 10 mM Glycine-HCl (pH 1.5), and assay was performed by repeatedly capturing antibodies. The dissociation constant of each antibody for CTLA4 was calculated using Biacore T200 Evaluation Software 2.0. Specifically, the binding rate constant ka (L/mol/s) and the dissociation rate constant kd (1/s) were calculated by global fitting of the sensorgrams obtained by the measurement, using a 1:1 Langmuir binding model. The dissociation constant KD (mol/L) was calculated from those values. Alternatively, the dissociation constant KD (mol/L) was calculated by the steady state model. In addition, the binding amount of CTLA4 per unit amount of antibody was calculated by correcting the amount of CTLA4 bound as calculated from the sensorgram obtained by the assay with the amount of antibody captured onto the chip surface.
As for B1, the dissociation constant (Kd) is 18 nM.

In turn, B4 returned a Kd of 30 nM.

Molecule B2 returned a Kd of 19 nM.

Molecule B5 registered a Kd of 28 nM.

Regarding B3, the Kd came to 25 nM.

In turn, B6 had a Kd of 14 nM.

B7 returned a Kd of 17 nM.

Turning to B8, the Kd turned out to be 28 nM.

Another assay has as its target T1, human CTLA4. The assay can be described thus: SPR Biacore T200, 37C, antibody captured, AMP 10 uM.
Experimental: as §1
The binding ability of the generated variants to human CTLA4 in the presence of ADP or AMP was evaluated by Biacore T200 and compared with the binding ability in the presence of ATP.
As to B1, the affinity, expressed as Kd, was 70 nM; the koff is 0.01 s⁻¹; the kon is 150000 M⁻¹ s⁻¹.

In turn, B2 showed a Kd of 100 nM, a koff of 0.016 s⁻¹ and a kon of 160000 M⁻¹ s⁻¹.

Molecule B3 had a Kd of 110 nM, a koff of 0.009 s⁻¹ and a kon of 81000 M⁻¹ s⁻¹.

In another assay the target is T1, human CTLA4. Description: SPR Biacore T200, 37C, antibody captured, ADP 10 uM.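 Further: antibodies held on a Protein G CM3 chip, human CTLA4 as analyte in ACES pH 7.4 buffer, rates from a global 1:1 Langmuir fit, Kd from rates or steady state.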
On to B1, for which the Kd worked out at 22 nM, the koff turned out to be 0.0035 s⁻¹ and the kon is 160000 M⁻¹ s⁻¹.

With B2, the affinity, expressed as Kd, was 30 nM; the koff came to 0.0048 s⁻¹; the kon was found to be 160000 M⁻¹ s⁻¹.

B3 came in with a Kd of 35 nM, a koff of 0.0028 s⁻¹ and a kon of 80000 M⁻¹ s⁻¹.
